± gives the standard deviation of the averaged measurements.
Test: total protein half-life in vivo (active degradation + dilution); higher = more stable protein
[1] = E. coli NCM3722 delta-clpP, growth: N-lim chemostat, doubling time 6 h
[2] = E. coli NCM3722 delta-clpP delta-lon delta-hslV, growth: N-lim chemostat, doubling time 6 h
[3] = E. coli NCM3722 delta-hslV, growth: N-lim chemostat, doubling time 6 h
[4] = E. coli NCM3722 delta-lon, growth: N-lim chemostat, doubling time 6 h
[5] = E. coli NCM3722 delta-smpB, growth: N-lim chemostat, doubling time 6 h
[6] = wild type E. coli NCM3722, growth: C-lim chemostat, doubling time 3 h
[7] = wild type E. coli NCM3722, growth: C-lim chemostat, doubling time 6 h
[8] = wild type E. coli NCM3722, growth: C-lim chemostat, doubling time 12 h
[9] = wild type E. coli NCM3722, growth: N-lim chemostat, doubling time 6 h
[10] = wild type E. coli NCM3722, growth: N-lim chemostat, doubling time 12 h
[11] = wild type E. coli NCM3722, growth: P-lim chemostat, doubling time 6 h
[12] = wild type E. coli NCM3722, growth: P-lim chemostat, doubling time 12 h

Q: For “MPRFFTRHAATLFFPMALILYDFAAYLSTDLIQPGIINVVRDFNADVSLAPAAVSLYLAGGMALQWLLGPLSDRIGRRPVLITGALIFTLACAATMFTTSMTQFLIARAIQGTSICFIATVGYVTVQEAFGQTKGIKLMAIITSIVLIAPIIGPLSGAALMHFMHWKVLFAIIAVMGFISFVGLLLAMPETVKRGAVPFSAKSVLRDFRNVFCNRLFLFGAATISLSYIPMMSWVAVSPVILIDAGSLTTSQFAWTQVPVFGAVIVANAIVARFVKDPTEPRFIWRAVPIQLVGLSLLIVGNLLSPHVWLWSVLGTSLYAFGIGLIFPTLFRFTLFSNKLPKGTVSASLNMVILMVMSVSVEIGRWLWFNGGRLPFHLLAVVAGVIVVFTLAGLLNRVRQHQAAELVEEQ”, which “total protein half-life in vivo” value [1] is on record?
A: 7.03 h

Q: Which “total protein half-life in vivo” value [2] does the source give for “MSQRGLEALLRPKSIAVIGASMKPNRAGYLMMRNLLAGGFNGPVLPVTPAWKAVLGVLAWPDIASLPFTPDLAVLCTNASRNLALLEELGEKGCKTCIILSAPASQHEDLRACALRHNMRLLGPNSLGLLAPWQGLNASFSPVPIKRGKLAFISQSAAVSNTILDWAQQRKMGFSYFIALGDSLDIDVDELLDYLARDSKTSAILLYLEQLSDARRFVSAARSASRNKPILVIKSGRSPAAQRLLNTTAGMDPAWDAAIQRAGLLRVQDTHELFSAVETLSHMRPLRGDRLMIISNGAAPAALALDALWSRNGKLATLSEETCQKLRDALPEHVAISNPLDLRDDASSEHYIKTLDILLHSQDFDALMVIHSPSAAAPATESAQVLIEAVKHHPRSKYVSLLTNWCGEHSSQEARRLFSEAGLPTYRTPEGTITAFMHMVEYRRNQKQLRETPALPSNLTSNTAEAHLLLQQAIAEGATSLDTHEVQPILQAYGMNTLPTWIASDSTEAVHIAEQIGYPVALKLRSPDIPHKSEVQGVMLYLRTANEVQQAANAIFDRVKMAWPQARVHGLLVQSMANRAGAQELRVVVEHDPVFGPLIMLGEGGVEWRPEDQAVVALPPLNMNLARYLVIQGIKSKKIRARSALRPLDVAGLSQLLVQVSNLIVDCPEIQRLDIHPLLASGSEFTALDVTLDISPFEGDNESRLAVRPYPHQLEEWVELKNGERCLFRPILPEDEPQLQQFISRVTKEDLYYRYFSEINEFTHEDLANMTQIDYDREMAFVAVRRIDQTEEILGVTRAISDPDNIDAEFAVLVRSDLKGLGLGRRLMEKLITYTRDHGLQRLNGITMPNNRGMVALARKLGFNVDIQLEEGIVGLTLNLAQREES” here?
A: 5.32 ± 0.66 h

Q: And the “total protein half-life in vivo” value [1]?
A: 5.3 ± 0.37 h

Q: What about the “total protein half-life in vivo” value [3] of the same sequence?
A: 4.54 ± 0.15 h

Q: And the “total protein half-life in vivo” value [4]?
A: 4.46 ± 0.67 h

Q: What about the “total protein half-life in vivo” value [5] of the same sequence?
A: 4.92 ± 0.72 h

Q: And the “total protein half-life in vivo” value [6]?
A: 3.28 ± 0.35 h

Q: And the “total protein half-life in vivo” value [7]?
A: 6.133 ± 0.015 h

Q: What about the “total protein half-life in vivo” value [8] of the same sequence?
A: 12.2 ± 0.95 h

Q: What about the “total protein half-life in vivo” value [9] of the same sequence?
A: 5 ± 0.23 h

Q: What about the “total protein half-life in vivo” value [10] of the same sequence?
A: 7.46 ± 0.52 h

Q: And the “total protein half-life in vivo” value [11]?
A: 6.35 ± 0.48 h

Q: What about the “total protein half-life in vivo” value [12] of the same sequence?
A: 14.1 ± 0.23 h

Q: For “MEWIADPSIWAGLITLIVIELVLGIDNLVFIAILAEKLPPKQRDRARVTGLLLAMLMRLLLLASISWLVTLTQPLFSFRSFTFSARDLIMLFGGFFLLFKATMELNERLEGKDSNNPTQRKGAKFWGVVTQIVVLDAIFSLDSVITAVGMVDHLLVMMAAVVIAISLMLMASKPLTQFVNSHPTIVILCLSFLLMIGFSLVAEGFGFVIPKGYLYAAIGFSVMIEALNQLAIFNRRRFLSANQTLRQRTTEAVMRLLSGQKEDAELDAETASMLVDHGNQQIFNPQERRMIERVLNLNQRTVSSIMTSRHDIEHIDLNAPEEEIRQLLERNQHTRLVVTDGDDAEDLLGVVHVIDLLQQSLRGEPLNLRVLIRQPLVFPETLPLLPALEQFRNARTHFAFVVDEFGSVEGIVTLSDVTETIAGNLPNEVEEIDARHDIQKNADGSWTANGHMPLEDLVQYVPLPLDEKREYHTIAGLLMEYLQRIPKPGEEVQVGDYLLKTLQVESHRVQKVQIIPLRKDGEMEYEV”, which “total protein half-life in vivo” value [2] is on record?
A: 6.68 ± 1.2 h

Q: And the “total protein half-life in vivo” value [1]?
A: 6.24 ± 0.2 h

Q: And the “total protein half-life in vivo” value [3]?
A: 6.92 ± 0.87 h

Q: And the “total protein half-life in vivo” value [4]?
A: 6.34 ± 0.46 h

Q: What about the “total protein half-life in vivo” value [5] of the same sequence?
A: 6.27 ± 0.67 h

Q: And the “total protein half-life in vivo” value [8]?
A: 14.9 ± 0.52 h

Q: What about the “total protein half-life in vivo” value [9] of the same sequence?
A: 6.24 ± 0.23 h

Q: And the “total protein half-life in vivo” value [10]?
A: 12.28 ± 0.022 h

Q: And the “total protein half-life in vivo” value [11]?
A: 6.598 ± 0.06 h

Q: And the “total protein half-life in vivo” value [12]?
A: 11.1 ± 2 h

Q: What does the source list for “MNAEKSPVNHNVDHEEIAKFEAVASRWWDLEGEFKPLHRINPLRLGYIAERAGGLFGKKVLDVGCGGGILAESMAREGATVTGLDMGFEPLQVAKLHALESGIQVDYVQETVEEHAAKHAGQYDVVTCMEMLEHVPDPQSVVRACAQLVKPGGDVFFSTLNRNGKSWLMAVVGAEYILRMVPKGTHDVKKFIKPAELLGWVDQTSLKERHITGLHYNPITNTFKLGPGVDVNYMLHTQNK”?
A: total protein half-life in vivo [2]: 4.74 ± 0.1 h; total protein half-life in vivo [1]: 4.09 ± 0.23 h; total protein half-life in vivo [3]: 3.48 ± 0.11 h; total protein half-life in vivo [4]: 4.02 ± 0.45 h; total protein half-life in vivo [5]: 3.46 ± 0.082 h; total protein half-life in vivo [6]: 2.45 ± 0.027 h; total protein half-life in vivo [7]: 4.96 ± 0.83 h; total protein half-life in vivo [8]: 6.694 ± 0.058 h; total protein half-life in vivo [9]: 3.85 ± 0.49 h; total protein half-life in vivo [10]: 5.66 ± 0.72 h; total protein half-life in vivo [11]: 3.13 ± 0.38 h; total protein half-life in vivo [12]: 5.66 ± 0.45 h

Q: For “MIVAFCLYKYFPFGGLQRDFMRIASTVAARGHHVRVYTQSWEGDCPKAFELIQVPVKSHTNHGRNAEYYAWVQNHLKEHPADRVVGFNKMPGLDVYFAADVCYAEKVAQEKGFLYRLTSRYRHYAAFERATFEQGKSTKLMMLTDKQIADFQKHYQTEPERFQILPPGIYPDRKYSEQIPNSREIYRQKNGIKEQQNLLLQVGSDFGRKGVDRSIEALASLPESLRHNTLLFVVGQDKPRKFEALAEKLGVRSNVHFFSGRNDVSELMAAADLLLHPAYQEAAGIVLLEAITAGLPVLTTAVCGYAHYIADANCGTVIAEPFSQEQLNEVLRKALTQSPLRMAWAENARHYADTQDLYSLPEKAADIITGGLDG”, which “total protein half-life in vivo” value [2] is on record?
A: 6.84 ± 0.81 h

Q: And the “total protein half-life in vivo” value [1]?
A: 7.01 ± 1.2 h

Q: What about the “total protein half-life in vivo” value [3] of the same sequence?
A: 6.71 ± 0.8 h

Q: What about the “total protein half-life in vivo” value [4] of the same sequence?
A: 5.95 ± 0.33 h

Q: And the “total protein half-life in vivo” value [5]?
A: 5.9 ± 0.47 h

Q: What about the “total protein half-life in vivo” value [6] of the same sequence?
A: 3.115 ± 0.015 h

Q: And the “total protein half-life in vivo” value [7]?
A: 6.72 ± 0.35 h

Q: And the “total protein half-life in vivo” value [8]?
A: 11.8 ± 2.6 h

Q: What about the “total protein half-life in vivo” value [9] of the same sequence?
A: 6.2 ± 0.56 h

Q: What about the “total protein half-life in vivo” value [10] of the same sequence?
A: 12.3 ± 1.8 h

Q: And the “total protein half-life in vivo” value [11]?
A: 6.25 ± 0.29 h

Q: What about the “total protein half-life in vivo” value [12] of the same sequence?
A: 12.2 ± 0.98 h

Q: What does the source list for “MSKCSADETPVCCCMDVGTIMDNSDCTASYSRVFANRAEAEQTLAALTEKARSVESEPCKITPTFTEESDGVRLDIDFTFACEAEMLIFQLGLR [P0AD33]”?
A: total protein half-life in vivo [2]: 5.299 ± 0.023 h; total protein half-life in vivo [3]: 2.32 ± 0.13 h; total protein half-life in vivo [4]: 2.77 ± 0.89 h; total protein half-life in vivo [5]: 2.37 ± 0.099 h; total protein half-life in vivo [6]: 2.3 ± 0.11 h; total protein half-life in vivo [7]: 4.14 ± 0.23 h; total protein half-life in vivo [8]: 8.27 ± 4.1 h; total protein half-life in vivo [9]: 2.09 ± 0.35 h; total protein half-life in vivo [10]: 3.61 ± 0.46 h; total protein half-life in vivo [11]: 5.25 ± 0.11 h; total protein half-life in vivo [12]: 8.88 ± 0.45 h

Source: the supplement of paper PMC11246515
